The record followed here is article PMC4551533, “Selection of DNA aptamers for ovarian cancer biomarker HE4 using CE-SELEX and high-throughput sequencing”.

For one data set, the target named is T1, HE4-GST (human) (UniProt Q14508).
T1 sequence: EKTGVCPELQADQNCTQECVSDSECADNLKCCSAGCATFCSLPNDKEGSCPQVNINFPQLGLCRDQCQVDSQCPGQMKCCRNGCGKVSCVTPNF
Description: fluorescence anisotropy. The note with it: TGK: 25 mM Tris, 192 mM glycine, 5 mM KH2PO4, pH 8.3, 25 C, no divalent cations; APCE 10 nM DNA, 1 mg/mL BSA; anisotropy 0.1 mg/mL BSA, HE4-GST 0-750 nM.

The target in data set [1] is T2, HE4-GST (human, UniProt Q14508 31-124).
T2 sequence: T1 sequence
Description: fluorescence anisotropy; TGK: 25 mM Tris, 192 mM glycine, 5 mM KH2PO4, pH 8.3, 25 C, no divalent cations; APCE 10 nM DNA, 1 mg/mL BSA; anisotropy 0.1 mg/mL BSA, HE4-GST 0-750 nM. To be noted: protein: commercial; tags: GST; label: 5' FAM (APCE); 5' TEX615 (anisotropy).

For data set [2], the target named is T2, HE4-GST. Description: affinity probe capillary electrophoresis; TGK: 25 mM Tris, 192 mM glycine, 5 mM KH2PO4, pH 8.3, 25 C, no divalent cations; APCE 10 nM DNA, 1 mg/mL BSA; anisotropy 0.1 mg/mL BSA, HE4-GST 0-750 nM. To be noted: protein: commercial; tags: GST; label: 5' FAM (APCE); 5' TEX615 (anisotropy).
The target in data set [3] is T2, HE4-GST. Description: affinity probe capillary electrophoresis; discrepant with anisotropy; TGK: 25 mM Tris, 192 mM glycine, 5 mM KH2PO4, pH 8.3, 25 C, no divalent cations; APCE 10 nM DNA, 1 mg/mL BSA; anisotropy 0.1 mg/mL BSA, HE4-GST 0-750 nM. The note with it: protein: commercial; tags: GST; label: 5' FAM (APCE); 5' TEX615 (anisotropy).

ATGGTCGCAAGAACTGAGAATTTAC [D3]: in the data set with HE4-GST (human), the Kd amounted to 26000 nM. Regarding CACAGTGCGTCACATTTAGGGCATT (ssDNA) [A3], the Kd with HE4-GST [1] amounted to 9100 nM; in the data set with HE4-GST [2] it was 500 nM. On to TTATCGTACGACAGTCATCCTACAC (ssDNA) [A1], for which the Kd was determined as 2200 nM with HE4-GST [1] and 390 nM with HE4-GST [2]. Consider CCGTCTTCTGCTTGAAAAAAAAAAA (ssDNA) [L1], for which binding with HE4-GST [3] was characterised by a dissociation constant (Kd) of 300 nM. For the molecule CAGTGCGTGCTTATTGGCGTAGCGTC (ssDNA) [B10], the figures for the Kd with HE4-GST [1] and in the data set with HE4-GST [2] were 280 nM and 870 nM, respectively.
